Common to all, as to format: biochemical
Substrate in series [1]: COc1ccc2c(CC(=O)N[C@@H](CCCNC(=N)N)C(=O)N3CCC[C@@H]3C(=O)N[C@@H](CC(C)C)C(=O)NCC(=O)N[C@@H](CC(C)C)C(=O)N[C@H](CNc3ccc([N+](=O)[O-])cc3[N+](=O)[O-])C(=O)N[C@@H](C)C(=O)N[C@H](CCCNC(=N)N)C(=O)N[C@@H](CCC(=O)O)C(=O)N[C@H](CCCNC(=N)N)C(N)=O)cc(=O)oc2c1
The series can be described thus: Km and kcat/Km of substrates with MMP-2. The note with it: other: substrate cleavage by MMP-2.

Substrate in series [2]: COc1ccc2c(CC(=O)N[C@H](CCCNC(=N)N)C(=O)N3CCC[C@H]3C(=O)N[C@@H](CC(C)C)C(=O)NCC(=O)N[C@@H](CCCCOc3ccccc3)C(=O)N[C@@H](CNc3ccc([N+](=O)[O-])cc3[N+](=O)[O-])C(=O)N[C@@H](C)C(=O)N[C@H](CCCNC(=N)N)C(=O)N[C@H](CCC(=O)O)C(=O)N[C@H](CCCNC(=N)N)C(N)=O)cc(=O)oc2c1
Kind of series: Km and kcat/Km of substrates with MMP-2. The note with it: other: substrate cleavage by MMP-2.

Substrate in series [3]: COc1ccc2c(CC(=O)N[C@@H](CCCNC(=N)N)C(=O)N3CCC[C@H]3C(=O)N[C@@H](CC(C)C)C(=O)NCC(=O)N[C@@H](CCCCOCc3ccccc3)C(=O)N[C@@H](CNc3ccc([N+](=O)[O-])cc3[N+](=O)[O-])C(=O)N[C@@H](C)C(=O)N[C@@H](CCCNC(=N)N)C(=O)N[C@@H](CCC(=O)O)C(=O)N[C@@H](CCCNC(=N)N)C(N)=O)cc(=O)oc2c1
The series can be described thus: Km and kcat/Km of substrates with MMP-2. Particulars: other: substrate cleavage by MMP-2.

Substrate in series [4]: COc1ccc2c(CC(=O)N[C@H](CCCNC(=N)N)C(=O)N3CCC[C@H]3C(=O)N[C@@H](CC(C)C)C(=O)NCC(=O)N[C@@H](CCCCOCc3ccccc3)C(=O)N[C@@H](CNc3ccc([N+](=O)[O-])cc3[N+](=O)[O-])C(=O)N[C@@H](C)C(=O)N[C@H](CCCNC(=N)N)C(=O)N[C@H](CCC(=O)O)C(=O)N[C@H](CCCNC(=N)N)C(N)=O)cc(=O)oc2c1
Kind of series: Km and kcat/Km of substrates with MMP-2. Particulars: other: substrate cleavage by MMP-2.

Substrate in series [5]: COc1ccc2c(CC(=O)N[C@@H](CCCNC(=N)N)C(=O)N3CCC[C@@H]3C(=O)N[C@@H](CC(C)C)C(=O)NCC(=O)N[C@@H](CC(C)C)C(=O)N[C@H](CNc3ccc([N+](=O)[O-])cc3[N+](=O)[O-])C(=O)N[C@@H](C)C(=O)N[C@H](CCCNC(=N)N)C(=O)N[C@@H](CCC(=O)O)C(=O)N[C@H](CCCNC(=N)N)C(N)=O)cc(=O)oc2c1
Kind of series: Km and kcat/Km of substrates with MMP-1. The note with it: other: substrate cleavage by MMP-1.

Substrate in series [6]: COc1ccc2c(CC(=O)N[C@H](CCCNC(=N)N)C(=O)N3CCC[C@H]3C(=O)N[C@@H](CC(C)C)C(=O)NCC(=O)N[C@@H](CCCCOCc3ccccc3)C(=O)N[C@@H](CNc3ccc([N+](=O)[O-])cc3[N+](=O)[O-])C(=O)N[C@@H](C)C(=O)N[C@H](CCCNC(=N)N)C(=O)N[C@H](CCC(=O)O)C(=O)N[C@H](CCCNC(=N)N)C(N)=O)cc(=O)oc2c1
The series can be described thus: Km and kcat/Km of substrates with MMP-1. Particulars: other: substrate cleavage by MMP-1.

Substrate in series [7]: COc1ccc2c(CC(=O)N[C@@H](CCCNC(=N)N)C(=O)N3CCC[C@@H]3C(=O)N[C@@H](CC(C)C)C(=O)NCC(=O)N[C@@H](CC(C)C)C(=O)N[C@H](CNc3ccc([N+](=O)[O-])cc3[N+](=O)[O-])C(=O)N[C@@H](C)C(=O)N[C@H](CCCNC(=N)N)C(=O)N[C@@H](CCC(=O)O)C(=O)N[C@H](CCCNC(=N)N)C(N)=O)cc(=O)oc2c1
Kind of series: Km and kcat/Km of substrates with MMP-7. The note with it: other: substrate cleavage by MMP-7.

Substrate in series [8]: COc1ccc2c(CC(=O)N[C@H](CCCNC(=N)N)C(=O)N3CCC[C@H]3C(=O)N[C@@H](CC(C)C)C(=O)NCC(=O)N[C@@H](CCCCOCc3ccccc3)C(=O)N[C@@H](CNc3ccc([N+](=O)[O-])cc3[N+](=O)[O-])C(=O)N[C@@H](C)C(=O)N[C@H](CCCNC(=N)N)C(=O)N[C@H](CCC(=O)O)C(=O)N[C@H](CCCNC(=N)N)C(N)=O)cc(=O)oc2c1
The series can be described thus: Km and kcat/Km of substrates with MMP-7. The note with it: other: substrate cleavage by MMP-7.

B1: MMP-2 (Homo sapiens) (protein)
chain: YNFFPRKPKWDKNQITYRIIGYTPDLDPETVDDAFARAFQVWSDVTPLRFSRIHDGEADIMINFGRWEHGDGYPFDGKDGLLAHAFAPGTGVGGDSHFDDDELWTLGEGQVVRVKYGNADGEYCKFPFLFNGKEYNSCTDTGRSDGFLWCSTTYNFEKDGKYGFCPHEALFTMGGNAEGQPCKFPFRFQGTSYDSCTTEGRTDGYRWCGTTEDYDRDKKYGFCPETAMSTVGGNSEGAPCVFPFTFLGNKYESCTSAGRSDGKMWCATTANYDDDRKWGFCPDQGYSLFLVAAHEFGHAMGLEHSQDPGALMAPIYTYTKNFRLSQDDIKGIQELYGASPDIDLGTGPTPTLGPVTPEICKQDIVFDGIAQIRGEIFFFKDRFIWRTVTPRDKPMGPLLVATFWPELPEKIDAVYEAPQEEKAVFFAGNEYWIYSASTLERGYPKPLTSLGLPPDVQRVDAAFNWSKNKKTYIFAGDKFWRYNEVKKKMDPGFPKLIADAWNAIPDNLDAVVDLQGGGHSYFFKGAYYLKLENQSLKSVKFGSIKSDWLGC
The term Km denotes the concentration of substrate that gives half-maximal velocity. As to B1, the Km in series [1] worked out at 9.9 µM; in series [2] it was 3.6 µM; in series [3], 8.3 µM; in series [4] it was 3.7 µM. In addition, the kcat/Km in series [1] stood at 17.8 M^−1s^−1×10^4; in series [2] it was 196 M^−1s^−1×10^4; in series [3], 134 M^−1s^−1×10^4; in series [4], 60 M^−1s^−1×10^4.

B2: MMP-1 (Homo sapiens) (protein)
chain: FVLTEGNPRWEQTHLTYRIENYTPDLPRADVDHAIEKAFQLWSNVTPLTFTKVSEGQADIMISFVRGDHRDNSPFDGPGGNLAHAFQPGPGIGGDAHFDEDERWTNNFREYNLHRVAAHELGHSLGLSHSTDIGALMYPSYTFSGDVQLAQDDIDGIQAIYGRSQNPVQPIGPQTPKACDSKLTFDAITTIRGEVMFFKDRFYMRTNPFYPEVELNFISVFWPQLPNGLEAAYEFADRDEVRFFKGNKYWAVQGQNVLHGYPKDIYSSFGFPRTVKHIDAALSEENTGKTYFFVANKYWRYDEYKRSMDPGYPKMIAHDFPGIGHKVDAVFMKDGFFYFFHGTRQYKFDPKTKRILTLQKANSWFNCRKN
On to B2, for which the Michaelis constant (Km) in series [5] stood at 49 µM; in series [6] it was 35.1 µM. Besides, the results for the kcat/Km in series [5] and in series [6] were 5.7 M^−1s^−1×10^4 and 0.36 M^−1s^−1×10^4, respectively.

B3: MMP-7 (Homo sapiens) (protein)
chain: YSLFPNSPKWTSKVVTYRIVSYTRDLPHITVDRLVSKALNMWGKEIPLHFRKVVWGTADIMIGFARGAHGDSYPFDGPGNTLAHAFAPGTGLGGDAHFDEDERWTDGSSLGINFLYAATHELGHSLGMGHSSDPNAVMYPTYGNGDPQNFKLSQDDIKGIQKLYGKRSNSRKK
With B3, in series [7], the Km came out at 81.2 µM and the kcat/Km was determined as 2.2 M^−1s^−1×10^4. Moreover, in series [8], the Michaelis constant (Km) turned out to be 94.7 µM and the kcat/Km turned out to be 0.298 M^−1s^−1×10^4.
